Primed or numbered codes have the meaning given here. Where no end group is shown, it is not given here. [ ]: non-standard residue; d: D form. pS = N[C@@H](COP(=O)(O)O)C(=O)O; FITC′ = not defined here
Assays:
[1] = biological target: T1, 14-3-3 epsilon (14-3-3ε, YWHAE) (Mus musculus, UniProt P62259); test: ITC with purified protein; supported by CETSA/ITDRF-CETSA in macrophage lysates and FP displacement of p-TFEB peptide (IC50 […]); assay type: binding
T1 construct: full-length mouse 14-3-3ε, His-tagged, from Sf9 cells
T1 sequence (P62259 1-255): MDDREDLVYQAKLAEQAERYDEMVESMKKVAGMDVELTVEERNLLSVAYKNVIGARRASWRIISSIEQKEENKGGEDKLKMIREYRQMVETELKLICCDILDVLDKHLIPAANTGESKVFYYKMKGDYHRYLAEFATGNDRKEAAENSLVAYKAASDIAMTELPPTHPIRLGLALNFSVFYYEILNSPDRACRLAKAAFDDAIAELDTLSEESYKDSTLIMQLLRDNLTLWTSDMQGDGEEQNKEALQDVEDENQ

[2] = biological target: T2, His-14-3-3ε (full-length mouse 14-3-3ε, purified) (mouse, UniProt P62259 1-255); test: fluorescence polarisation; direct binding: His-14-3-3ε serially diluted (1-4000 nM) against FITC-labelled peptide (10 nM solution); 25 mM HEPES pH 7.5, 100 mM NaCl, 1 mg/ml BSA, 0.05% CHAPS; 60 min at 25 °C; settings: both partners purified
T2 construct: 14-3-3 epsilon, mouse, full length; also called 14-3-3 epsilon; 14-3-3ɛ; source: Sf9 (Bac-to-Bac baculovirus), purified (Ni-NTA), at least 70% pure
T2 sequence (looked up): T1 sequence (P62259 1-255)

## O=C1C[C@@H](c2ccc(O)cc2)Oc2cc(O)cc(O)c21 [NGN, naringenin]
[1]
  Kd: 30600 ± 7990 nM

B1: control phosphor-peptide (p-control peptide, MARSHpSYPAKKK) with C-terminal FITC (peptide)
peptide: MARSH[pS]YPAKKK-{FITC′}
notes: control phosphopeptide with the conventional 14-3-3 motif RSXpSXP; source: synthetic peptide
[2]
  Kd: 2.4 nM

B2: phosphorylated TFEB peptide (p-TFEB peptide, LVGVTSSpSCPADLTQ) with C-terminal FITC (peptide)
peptide: LVGVTSS[pS]CPADLTQ-{FITC′}
notes: also called p-TFEB-FITC; source: synthetic peptide
[2]
  Kd: 9.68 nM

From publication PMC8885854, “Targeting macrophage TFEB-14-3-3 epsilon Interface by naringenin inhibits abdominal aortic aneurysm” (Cell Discovery, 2022)
